Measurements as given in paper doi:10.1101/2024.10.14.618152.

Biological target: Zt-KP4-1 (Zt-NIP1) (Zymoseptoria tritici)
Assay: SEC

Substance: Zt-KP4-1 (Zt-NIP1) (natural protein)
- stoichiometry N: 2
